Here are results for one protein from article PMC12615762.

In general, Km refers to the substrate concentration at which the rate is half of its maximum.

Substrate in this data set: NCCC(=O)N[C@@H](Cc1cnc[nH]1)C(=O)O
Put plainly: purified protein. To be noted: SAM.

B1: carnosine N-methyltransferase (CNMT, CARNMT1, C9orf41) (Homo sapiens) (protein)
chain: MQRRRRPPPPTSRLPEGCGGGGGGSEEVEVQFSAGRWGSAAAVSAAAAAATRSTEEEEERLEREHFWKIINAFRYYGTSMHERVNRTERQFRSLPANQQKLLPQFLLHLDKIRKCIDHNQEILLTIVNDCIHMFENKEYGEDGNGKIMPASTFDMDKLKSTLKQFVRDWSETGKAERDACYQPIIKEILKNFPKERWDPSKVNILVPGAGLGRLAWEIAMLGYACQGNEWSFFMLFSSNFVLNRCSEINKYKLYPWIHQFSNNRRSADQIRPIFFPDVDPHSLPPGSNFSMTAGDFQEIYSECNTWDCIATCFFIDTAHNVIDYIDTIWKILKPGGIWINLGPLLYHFENLANELSIELSYEDIKNVVLQYGFKVEVEKESVLSTYTVNDLSMMKYYYECVLFVVRKPQ
As for B1, the Km worked out at 4.631 µM.
